Results on five substances are retold here after patent US20060246067A1.

For this assay, the target named is T cell Receptor (TcR) on human peripheral blood T lymphocytes. Nature of the assay: cell-based or functional assay.
As for SMEZ-2 W75L.D42C.K182Q (M1), the P50% (human PBL proliferation, 3H thymidine incorporation) is > 10 ng/mL and the Reduction (fold, against SMEZ-2 wild type) was > 100000 fold.
The matching figures for SMEZ-2 D42C: 10 ng/mL and 10000 fold.
On to SMEZ-2 W75L, for which the P50% (human PBL proliferation, 3H thymidine incorporation) was > 10 ng/mL and the Reduction (fold, against SMEZ-2 wild type) is > 100000 fold.
For the substance SMEZ-2 Y18A, the P50% (human PBL proliferation, 3H thymidine incorporation) is > 10 ng/mL and the Reduction (fold, against SMEZ-2 wild type) was > 100000 fold.
The matching figures for SMEZ-2 W75L.D42C.K182Q.Y18A. (M2): > 10 ng/mL and > 100000 fold.
